Consider 3 molecules from US20150329637A1 (NUMAB, published 2015).

Read-outs that look alike come from different tables or passages of the source.

One may read the Kd as a measure of binding affinity in units of concentration. As usually defined, the koff is the rate constant with which the complex falls apart. For orientation: kon means a measure of how fast the partners come together.

Assay [1] addresses mouse CD3 (mouse CD36E [sic], Sino Biologicals Inc., Cat. No. CT033-M2508H) (mouse) (UniProt P22646). Put plainly: SPR. Background: SPR reads the build-up and loss of mass on a sensor chip optically.
Assay [2] has as its target T1, mouse IL23R (as used in the SPR of PRO387 and PRO386) (mouse, UniProt Q8K4B4 24-372, limits assumed).
T1 sequence (looked up): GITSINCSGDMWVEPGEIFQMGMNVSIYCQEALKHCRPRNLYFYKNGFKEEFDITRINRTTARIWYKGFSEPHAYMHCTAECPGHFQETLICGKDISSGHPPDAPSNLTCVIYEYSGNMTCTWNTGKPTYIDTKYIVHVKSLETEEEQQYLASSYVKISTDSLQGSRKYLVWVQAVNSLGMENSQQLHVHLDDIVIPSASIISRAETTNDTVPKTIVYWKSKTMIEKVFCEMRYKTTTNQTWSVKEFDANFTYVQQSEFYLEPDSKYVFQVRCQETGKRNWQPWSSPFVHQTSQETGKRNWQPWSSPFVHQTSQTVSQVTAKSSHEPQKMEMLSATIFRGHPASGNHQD
Put plainly: SPR.

The target in assay [3] is T1, mouse IL23R (as used in the SPR of …). Put plainly: SPR. The source holds these as a separate data set.
Assay [4] concerns the target mouse CD3 (mouse CD36E [sic], Sino Biologicals Inc., Cat. No. CT033-M2508H) (mouse) (UniProt P22646). Put plainly: SPR. This is another data set of the same source.
Assay [5] deals with T2, recombinant human IL23R Fc chimera (R&D Systems, Cat. No. 1400-IR-050) (human, UniProt Q5VWK5 24-353).
T2 construct: Bought reagent; not shown: Fc part (and any linker) of the bought chimera; captured by an anti-human IgG Fc antibody
T2 sequence (looked up): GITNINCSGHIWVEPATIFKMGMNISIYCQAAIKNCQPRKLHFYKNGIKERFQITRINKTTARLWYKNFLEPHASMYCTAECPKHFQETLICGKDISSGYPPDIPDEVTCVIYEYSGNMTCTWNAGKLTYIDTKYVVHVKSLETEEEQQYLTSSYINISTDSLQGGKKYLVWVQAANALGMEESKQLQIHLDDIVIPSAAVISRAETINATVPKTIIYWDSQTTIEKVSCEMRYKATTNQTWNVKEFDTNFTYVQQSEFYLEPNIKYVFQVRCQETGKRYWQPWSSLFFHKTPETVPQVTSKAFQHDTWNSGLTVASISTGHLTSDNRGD
Put plainly: SPR; IL23R Fc chimera captured by anti-human Fc, scFv injected. How it is done:
(§1) Binding affinities of anti-IL23R scFvs were measured by surface plasmon resonance (SPR) using a MASS-1 SPR instrument (Sierra Sensors). […] After immobilization, 1 ug/ml recombinant human IL23R Fc chimera (R&D Systems, Cat. No. 1400-IR-050) was captured by the anti-human IgG antibody while a second immobilized channel served as a control where the capture was replaced by buffer. Two-fold serial dilutions of human scFvs ranging from 180 to 2.81 nM were injected into both flow cells for 3 min and dissociation of the scFvs from the chimera on the sensor chip was allowed to proceed for 700 sec. After each injection cycle, surfaces were regenerated with two 1 min injections of 10 mM glycine-HCI pH 1.5. In a similar manner the affinities for cynomolgus and mouse IL23R Fc chimera (R&D Systems, Cat. No. 1686-MR-050) was measured. The apparent dissociation (kd) and association (ka) rate constants and the apparent dissociation equilibrium constant (KD) were calculated with the MASS-1 analysis software (Analyzer, Sierra Sensors) using one-to-one Langmuir binding model.

For assay [6], the target named is T3, mouse IL23R Fc chimera (R&D Systems, Cat. No. 1686-MR-050) (mouse, UniProt Q8K4B4 24-372).
T3 construct: Bought reagent; Fc part of the bought chimera not given
T3 sequence (looked up): T1 sequence (looked up)
The assay is described as above. How it is done: as §1

Assay [7] concerns the target T4, cynomolgus IL23R Fc chimera (cynomolgus monkey, UniProt G7NWY5 24-353).
T4 construct: Named only in the method sentence 'cynomolgus and mouse IL23R Fc chimera'; also called cyno IL23R; not shown: Fc part of the chimera
T4 sequence: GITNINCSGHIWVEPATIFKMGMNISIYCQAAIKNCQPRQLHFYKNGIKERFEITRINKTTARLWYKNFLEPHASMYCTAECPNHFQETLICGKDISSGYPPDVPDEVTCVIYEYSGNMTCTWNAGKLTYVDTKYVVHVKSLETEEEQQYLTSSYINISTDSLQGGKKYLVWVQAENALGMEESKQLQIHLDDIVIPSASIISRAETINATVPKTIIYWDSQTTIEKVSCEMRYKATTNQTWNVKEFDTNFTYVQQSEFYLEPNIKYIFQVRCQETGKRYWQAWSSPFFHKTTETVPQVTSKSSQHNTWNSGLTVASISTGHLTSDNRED
The assay is described as above. The protocol: as §1

mouse CD3 (mouse CD36E [sic], Sino Biologicals Inc., Cat. No. CT033-M2508H) (mouse), sequence (P22646 22-108, chain 1 of 2): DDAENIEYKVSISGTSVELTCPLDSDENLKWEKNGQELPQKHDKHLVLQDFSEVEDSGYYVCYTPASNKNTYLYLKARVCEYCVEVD
mouse CD3 (mouse CD36E [sic], Sino Biologicals Inc., Cat. No. CT033-M2508H) (mouse), sequence (P04235 22-105, chain 2 of 2, further chain): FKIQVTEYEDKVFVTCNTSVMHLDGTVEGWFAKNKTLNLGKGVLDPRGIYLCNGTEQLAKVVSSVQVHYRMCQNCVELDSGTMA

B1: PRO387 (bispecific antibody)
chain: DIQMTQSPSSLSASVGDRVTITCQASENIYSFLAWYQQKPGKAPKLLIYSASKLAAGVPSRFSGSGSGTDFTLTISSLQPEDFATYYCQQTNRYSNPDIYNVFGQGTKLTVLGGGGGSEVQLVESGGGLVQPGKSLKLSCEASGFTFSGYGMHWVRQAPGRGLESVAYITSSSINIKYADAVKGRFTVSRDNAKNLLFLQMNILKSEDTAMYYCARFDWDKNYWGQGTMVTVSSGGGGSGGGGSGGGGSGGGGSDIQMTQSPSSLPASLGDRVTINCQASQDISNYLNWYQQKPGKAPKLLIYYTNKLADGVPSRFSGSGSGRDSSFTISSLESEDIGSYYCQQYYNYPWTFGPGTKLEIKRGGGGSEVQLVESGGGLVQPGGSLRLSCAASGIDFNSNYYMCWVRQAPGKGLEWIGCIYVGSHVNTYYANWAKGRFTISRDNSKNTVYLQMNSLRAEDTAVYYCATSGSSVLYFKFWGQGTLVTVSS
notes: also called PRO387 (scDb); surrogate scDb
Turning to B1, in assay [1], the Kd is 9.11 nM, the koff came out at 0.00213 s⁻¹ and the kon came to 233000 M⁻¹ s⁻¹. Further, in assay [2], the Kd was determined as 4.66 nM, the koff was 0.00326 s⁻¹ and the kon turned out to be 701000 M⁻¹ s⁻¹.

B2: PRO386 (bispecific antibody)
light: DIQMTQSPSSLPASLGDRVTINCQASQDISNYLNWYQQKPGKAPKLLIYYTNKLADGVPSRFSGSGSGRDSSFTISSLESEDIGSYYCQQYYNYPWTFGPGTKLEIKRRTVAAPSVFIFPPSDEQLKSGTASVVCLLNNFYPREAKVQWKVDNALQSGNSQESVTEQDSKDSTYSLSSTLTLSKADYEKHKVYACEVTHQGLSSPVTKSFNRGECGGGGSGGGGSHMDIQMTQSPSSLSASVGDRVTITCQASENIYSFLAWYQQKPGKAPKLLIYSASKLAAGVPSRFSGSGSGTDFTLTISSLQPEDFATYYCQQTNRYSNPDIYNVFGQGTKLTVLGGGGGSGGGGSGGGGSGGGGSEVQLVESGGGLVQPGGSLRLSCAASGIDFNSNYYMCWVRQAPGKGLEWIGCIYVGSHVNTYYANWAKGRFTISRDNSKNTVYLQMNSLRAEDTAVYYCATSGSSVLYFKFWGQGTLVTVSS
heavy: EVQLVESGGGLVQPGKSLKLSCEASGFTFSGYGMHWVRQAPGRGLESVAYITSSSINIKYADAVKGRFTVSRDNAKNLLFLQMNILKSEDTAMYYCARFDWDKNYWGQGTMVTVSSASTKGPSVFPLAPSSKSTSGGTAALGCLVKDYFPEPVTVSWNSGALTSGVHTFPAVLQSSGLYSLSSVVTVPSSSLGTQTYICNVNHKPSNTKVDKKVEPKSCGGGGSGGGGSHMDIQMTQSPSSLSASVGDRVTITCQASENIYSFLAWYQQKPGKAPKLLIYSASKLAAGVPSRFSGSGSGTDFTLTISSLQPEDFATYYCQQTNRYSNPDIYNVFGQGTKLTVLGGGGGSGGGGSGGGGSGGGGSEVQLVESGGGLVQPGGSLRLSCAASGIDFNSNYYMCWVRQAPGKGLEWIGCIYVGSHVNTYYANWAKGRFTISRDNSKNTVYLQMNSLRAEDTAVYYCATSGSSVLYFKFWGQGTLVTVSS
notes: Heterodimer; bispecific and trivalent (one anti-CD3 Fab, two anti-IL23R scFvs); also called PRO386 (Tribody); Fab-scFv fusion surrogate
Regarding B2, in assay [3], the Kd turned out to be 0.583 nM, the off-rate (koff) came out at 0.000533 s⁻¹ and the kon amounted to 915000 M⁻¹ s⁻¹. Further, in assay [4], the Kd came out at 11.5 nM, the koff was 0.00196 s⁻¹ and the kon was 171000 M⁻¹ s⁻¹.

B3: 14-11-D07-sc01 (scFv)
scFv: DIQMTQSPSSLSASVGDRVTITCQASENIYSFLAWYQQKPGKAPKLLIYSASKLAAGVPSRFSGSGSGTDFTLTISSLQPEDFATYYCQQTNRYSNPDIYNVFGQGTKLTVLGGGGGSGGGGSGGGGSGGGGSEVQLVESGGGLVQPGGSLRLSCAASGIDFNSNYYMCWVRQAPGKGLEWIGCIYVGSHVNTYYANWAKGRFTISRDNSKNTVYLQMNSLRAEDTAVYYCATSGSSVLYFKFWGQGTLVTVSS
notes: Humanized scFv (CDR graft on a VK1/VH3 framework); also called anti-IL23R scFv 14-11-D07-sc01
With B3, the Kd in assay [5] worked out at 0.116 nM; in assay [6], 2.21 nM; in assay [7] it was 0.124 nM. Moreover, the koff in assay [5] came out at 0.000259 s⁻¹; in assay [6], 0.00418 s⁻¹; in assay [7], 0.000361 s⁻¹. The values for the kon in assay [5], in assay [6] and in assay [7] were 2.24e+06 M⁻¹ s⁻¹, 1.89e+06 M⁻¹ s⁻¹ and 2.92e+06 M⁻¹ s⁻¹, respectively.
